Changes are numbered by the printed parent chain. Numbers in names are those of the source.
T1: EsCas13d, nuclease-dead (Eubacterium siraeum, UniProt B0MS50, R295A;H300A;R849A;H854A)
T1 sequence: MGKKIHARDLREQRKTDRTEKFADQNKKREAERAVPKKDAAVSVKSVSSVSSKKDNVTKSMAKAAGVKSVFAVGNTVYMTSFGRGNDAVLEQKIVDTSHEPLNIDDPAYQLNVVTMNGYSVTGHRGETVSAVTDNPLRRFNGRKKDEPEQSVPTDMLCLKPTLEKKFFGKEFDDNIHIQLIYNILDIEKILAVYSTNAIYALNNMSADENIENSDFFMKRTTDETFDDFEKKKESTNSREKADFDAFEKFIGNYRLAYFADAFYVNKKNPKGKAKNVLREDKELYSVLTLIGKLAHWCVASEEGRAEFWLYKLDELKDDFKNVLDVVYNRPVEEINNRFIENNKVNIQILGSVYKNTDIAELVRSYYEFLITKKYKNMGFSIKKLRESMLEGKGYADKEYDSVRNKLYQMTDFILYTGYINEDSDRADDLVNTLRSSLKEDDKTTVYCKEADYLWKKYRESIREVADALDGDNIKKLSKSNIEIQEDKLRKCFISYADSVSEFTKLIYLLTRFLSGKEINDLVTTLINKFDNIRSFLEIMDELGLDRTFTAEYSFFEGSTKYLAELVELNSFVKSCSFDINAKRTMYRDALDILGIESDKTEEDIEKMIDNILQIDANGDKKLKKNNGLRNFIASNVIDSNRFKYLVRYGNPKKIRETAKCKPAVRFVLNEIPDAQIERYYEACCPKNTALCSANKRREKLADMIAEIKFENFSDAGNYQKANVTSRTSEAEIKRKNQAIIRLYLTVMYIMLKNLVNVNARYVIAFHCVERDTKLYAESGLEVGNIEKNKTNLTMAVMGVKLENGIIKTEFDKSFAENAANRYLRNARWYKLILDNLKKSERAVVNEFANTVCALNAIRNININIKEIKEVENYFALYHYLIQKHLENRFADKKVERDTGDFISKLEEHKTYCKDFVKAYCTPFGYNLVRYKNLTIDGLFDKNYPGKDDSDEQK

B1: target 1 insC 3' of 22,insU 3' of 6 (mixed)
RNA 1: CACCCGUGCAAAAAUGCAGGGGUCUAAAACUGAGCGGAUAACCUCUCUAUGG
RNA 2: GGGAAUGGAUCCACAUCUACGAAUUCGUACCCAUAGAGAGGUUAUCCUGCUCACCGAGAUCGGAAGAGCACACGU
B2: target 1 insU 3' of 22,insU 3' of 4 (mixed)
RNA 1: B1 RNA 1
RNA 2: B1 RNA 2 with C31U, U48G, G49C, C50U
B3: target 1 insC 3' of 22,insG 3' of 11 (mixed)
RNA 1: B1 RNA 1
RNA 2: B1 RNA 2 with U43G, A44U, U45A, C46U, U48C
B4: target 3 insU 3' of 4,insU 3' of 4 (mixed)
RNA 1: CACCCGUGCAAAAUUGCAGGGGUCUAAAACGACCUGAAUAUUUCAGAUCAAA
RNA 2: GGGAAUGGAUCCACAUCUACGAAUUCGUUUUUGAUCUGAAAUAUUCAGUUGUCUGCAGAUCGGAAGAGCACACGU
B5: target 3 insA 3' of 21,insA 3' of 2 (mixed)
RNA 1: B4 RNA 1
RNA 2: GGGAAUGGAUCCACAUCUACGAAUUCGUUUUAUGAUCUGAAAUAUUCAGGUACUGCAGAUCGGAAGAGCACACGU
B6: target 3 U2G,A12C (mixed)
RNA 1: B4 RNA 1
RNA 2: GGGAAUGGAUCCACAUCUACGAAUUCGUUUUUGAUCUGACAUAUUCAGGGCUGCAGAUCGGAAGAGCACACGU
B7: target 3 insG 3' of 9,insC 3' of 3 (mixed)
RNA 1: B4 RNA 1
RNA 2: B4 RNA 2 with U44G, C46U, A47C, G48A, U49G, U50G, G51C
B8: target 3 insA 3' of 10,insA 3' of 2 (mixed)
RNA 1: B4 RNA 1
RNA 2: B4 RNA 2 with U44A, C46U, A47C, G48A, U49G, U50G, G51U, U52A
B9: target 3 G3C,G4A (mixed)
RNA 1: B4 RNA 1
RNA 2: B6 RNA 2 with C40A, G48A, G49C, G50U
B10: target 3 del2,del8 (mixed)
RNA 1: B4 RNA 1
RNA 2: GGGAAUGGAUCCACAUCUACGAAUUCGUUUUUGAUCUGAAAUAUCAGGCUGCAGAUCGGAAGAGCACACGU
B11: target 3 C1U,A11G (mixed)
RNA 1: B4 RNA 1
RNA 2: B6 RNA 2 with C40A, A41G, G50U, C51U
B12: target 3 del2 (mixed)
RNA 1: B4 RNA 1
RNA 2: GGGAAUGGAUCCACAUCUACGAAUUCGUUUUUGAUCUGAAAUAUUCAGGCUGCAGAUCGGAAGAGCACACGU
B13: target 3 insC 3' of 18,insC 3' of 11 (mixed)
RNA 1: B4 RNA 1
RNA 2: GGGAAUGGAUCCACAUCUACGAAUUCGUUUUUGACUCUGAAACUAUUCAGGUCUGCAGAUCGGAAGAGCACACGU
B14: target 3 C1U,A5U (mixed)
RNA 1: B4 RNA 1
RNA 2: B6 RNA 2 with C40A, A47U, G50U, C51U
B15: target 3 insU 3' of 6,insG 3' of 6 (mixed)
RNA 1: B4 RNA 1
RNA 2: B4 RNA 2 with A47U, U49A, U50G
B16: target 3 U21G,U22A (mixed)
RNA 1: B4 RNA 1
RNA 2: B6 RNA 2 with U30A, U31G, C40A, G50U
B17: target 3 insC 3' of 22,insG 3' of 2 (mixed)
RNA 1: B4 RNA 1
RNA 2: B5 RNA 2 with U31C, A32U, A52G
B18: target 3 del1 (mixed)
RNA 1: B4 RNA 1
RNA 2: B12 RNA 2 with C50U
B19: target 3 C6U,U7A (mixed)
RNA 1: B4 RNA 1
RNA 2: B6 RNA 2 with C40A, U45A, C46U, G50U
B20: target 3 insA 3' of 22,insA 3' of 2 (mixed)
RNA 1: B4 RNA 1
RNA 2: B5 RNA 2 with U31A, A32U
B21: target 3 U2G,A13U (mixed)
RNA 1: B4 RNA 1
RNA 2: B6 RNA 2 with A39U, C40A
B22: target 3 insG 3' of 22,insU 3' of 3 (mixed)
RNA 1: B4 RNA 1
RNA 2: B5 RNA 2 with U31G, A32U, A52U
B23: target 3 insA 3' of 20,insU 3' of 19 (mixed)
RNA 1: B4 RNA 1
RNA 2: B13 RNA 2 with G33A, A34G, C35U, U36A, C37U, U38C, G39U, A40G, C43A
B24: target 3 del8 (mixed)
RNA 1: B4 RNA 1
RNA 2: B12 RNA 2 with U45C, C46A, A47G, G49U
B25: target 3 U10C (mixed)
RNA 1: B4 RNA 1
RNA 2: B6 RNA 2 with C40A, U42C, G50U
B26: target 3 insG 3' of 11,insA 3' of 6 (mixed)
RNA 1: B4 RNA 1
RNA 2: B4 RNA 2 with U42G, A43U, U44A, C46U, A47C, G48A, U49A, U50G
B27: target 3 U2G,A11C (mixed)
RNA 1: B4 RNA 1
RNA 2: B6 RNA 2 with C40A, A41C
B28: target 3 insA 3' of 14,insU 3' of 5 (mixed)
RNA 1: B4 RNA 1
RNA 2: B4 RNA 2 with U42A, A43U, U44A, C46U, A47C, G48A, U50G
B29: target 3 insC 3' of 5 (mixed)
RNA 1: B4 RNA 1
RNA 2: GGGAAUGGAUCCACAUCUACGAAUUCGUUUUUGAUCUGAAAUAUUCACGGUCUGCAGAUCGGAAGAGCACACGU
B30: target 3 insC 3' of 22,insG 3' of 5 (mixed)
RNA 1: B4 RNA 1
RNA 2: B5 RNA 2 with U31C, A32U, U51G, A52U
B31: target 3 complement block 5-7 (mixed)
RNA 1: B4 RNA 1
RNA 2: B6 RNA 2 with C40A, U45A, C46G, A47U, G50U

Molecular target: T1, EsCas13d, nuclease-dead
Test: crRNA (strand 1, pre-loaded); Mg2+; 40 mM Tris-HCl pH 7.5, 150 mM NaCl, 6 mM MgCl2, 1 mM DTT, 0.1% Tween-20, 0.2 mg/ml BSA; 25 C; 10 min per concentration, then washed
Conditions: tags: His6-TwinStrep-SUMO cleaved; N-terminal SNAP kept (SNAP-Surface 488); label: 3' end held by stalled T7 RNA polymerase

Going from B1 to B2, the Kd rises from 20 ± 2 nM to 32 ± 5 nM (1.6-fold). The first binds more tightly here.

First: B3
Second: B4
The Kd of the first is 2.8-fold higher: 41 ± 4 nM for the first, 14.5 ± 1.2 nM for the second. The second binds more tightly here.

B5 and B6 are within 1.5-fold of each other in Kd: 30.3 ± 2.6 nM for the first, 23.5 ± 4 nM for the second.

B7 and B8 are within error of each other in Kd: 42 ± 7 nM for the first, 56 ± 8.5 nM for the second.

Going from B9 to B10, the Kd rises from 6.6 ± 0.65 nM to 47 ± 8.5 nM (7.1-fold). The first binds more tightly here.

First: B11
Second: B12
The Kd of the first is 6.1-fold higher: 55.5 ± 13 nM for the first, 9.1 ± 0.7 nM for the second. The second binds more tightly here.

Compared with B13, B14 is 2.9-fold lower in Kd: 37 ± 5 nM for the first, 12.9 ± 3.05 nM for the second. The second binds more tightly here.

Going from B15 to B16, the Kd rises from 8.7 ± 0.95 nM to 57.5 ± 15.5 nM (6.6-fold).

Compared with B17, B18 is 2.2-fold lower in Kd: 59 ± 11 nM for the first, 27.1 ± 2.55 nM for the second.

First: B19
Second: B20
The Kd of the first is 1.6-fold higher: 40 ± 4.25 nM for the first, 24.9 ± 2.35 nM for the second. The second binds more tightly here.

B21 and B22 are within error of each other in Kd: 46.5 ± 13.5 nM for the first, 68 ± 26 nM for the second.

Compared with B23, B24 is 1.8-fold higher in Kd: 62.5 ± 14.5 nM for the first, ~114 nM for the second. The first binds more tightly here.

B25 and B26 are within error of each other in Kd: 88 ± 22 nM for the first, 91.5 ± 22 nM for the second.

B27 and B28 are within error of each other in Kd: 63 ± 25.5 nM for the first, 69.5 ± 12.5 nM for the second.

First: B29
Second: B30
The Kd of the first is 4.9-fold lower: 19.2 ± 1.75 nM for the first, 93.5 ± 26 nM for the second. The first binds more tightly here.

Binder B31 has a Kd of 39.1 ± 2.9 nM.

— paper PMC10786891, “Massively parallel profiling of RNA-targeting CRISPR-Cas13d”
